Reference: US20120121608A1 (CALIFORNIA INSTITUTE OF TECHNOLOGY, published 2012)
Each block holds one binder with its values, some of them ahead of it.

B1: Sam68, endogenous, in mouse embryonic fibroblasts (MEF) (other, UniProt Q60749 1-443, looked up)
chain: MQRRDDPASRLTRSSGRSCSKDPSGAHPSVRLTPSRPSPLPHRPRGGGGGPRGGARASPATQPPPLLPPSTPGPDATVVGSAPTPLLPPSATAAVKMEPENKYLPELMAEKDSLDPSFTHAMQLLSVEIEKIQKGESKKDDEENYLDLFSHKNMKLKERVLIPVKQYPKFNFVGKILGPQGNTIKRLQEETGAKISVLGKGSMRDKAKEEELRKGGDPKYAHLNMDLHVFIEVFGPPCEAYALMAHAMEEVKKFLVPDMMDDICQEQFLELSYLNGVPEPSRGRGVSVRGRGAAPPPPPVPRGRGVGPPRGALVRGTPVRGSITRGATVTRGVPPPPTVRGAPTPRARTAGIQRIPLPPTPAPETYEDYGYDDTYAEQSYEGYEGYYSQSQGESEYYDYGHGELQDSYEAYGQDDWNGTRPSLKAPPARPVKGAYREHPYGRY
notes: also called KHDRBS1

Key:
[1] = target: T1, RIP, endogenous, in mouse embryonic fibroblasts (mouse, UniProt Q60855 1-656); test: immunoprecipitation of Sam68 from TNF-treated MEF cells, probed for RIP (FIG. 15E)
T1 sequence (looked up): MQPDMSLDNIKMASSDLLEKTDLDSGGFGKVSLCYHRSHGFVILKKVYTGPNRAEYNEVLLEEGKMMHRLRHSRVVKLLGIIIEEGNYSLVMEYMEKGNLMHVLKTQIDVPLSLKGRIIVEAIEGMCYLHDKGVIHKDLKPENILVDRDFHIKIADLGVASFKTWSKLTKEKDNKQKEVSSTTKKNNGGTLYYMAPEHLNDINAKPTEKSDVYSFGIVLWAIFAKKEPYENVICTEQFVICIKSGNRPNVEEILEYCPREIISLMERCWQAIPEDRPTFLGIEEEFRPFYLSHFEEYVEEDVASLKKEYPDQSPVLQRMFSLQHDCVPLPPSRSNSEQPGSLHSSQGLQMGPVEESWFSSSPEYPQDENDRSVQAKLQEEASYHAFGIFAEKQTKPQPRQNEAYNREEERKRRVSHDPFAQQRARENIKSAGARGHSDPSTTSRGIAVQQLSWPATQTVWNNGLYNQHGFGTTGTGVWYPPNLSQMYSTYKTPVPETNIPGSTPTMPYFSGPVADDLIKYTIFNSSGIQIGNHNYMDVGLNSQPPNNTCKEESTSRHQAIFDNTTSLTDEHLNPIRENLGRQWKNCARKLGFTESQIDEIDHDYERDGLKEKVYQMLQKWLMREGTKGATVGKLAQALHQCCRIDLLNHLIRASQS

[2] = target: T2, Sam68, endogenous, in human cells (HeLa, 293T) (human, UniProt Q07666 1-443); test: immunoprecipitation of TNFR with anti-TNFR antibody from HeLa cells, immunoblot (FIG. 9E)
T2 construct: also called endogenous Sam68
Protocol: (§1) 20-25×10⁶ control and treated cells were lysed in a rotator at 4° C. for 30 minutes in the lysis buffer (1.0% Triton-X100, 20 mM HEPES (pH 7.6), 150 mM NaCl, 1 mM EDTA, 10% glycerol and complete protease inhibitor cocktail). The immunoprecipitates were washed thrice with the lysis buffer and boiled with LDS sample buffer (Invitrogen). Samples with the endogenous protein complexes were resolved in Novex 4-12% Bis-Tris gels (Invitrogen) and transferred to nitrocellulose membrane, probed using relevant antibodies and detected using the SuperSignal West Pico or West Femto Chemiluminescent Substrate System (Pierce). Detection of proteins in the immunoprecipitates with molecular weight close to the denatured heavy and light chains of immunoglobulins (50 kDa and 25 kDa respectively) was performed using native IgG detection reagent (Pierce). […] Additionally, membrane fractionation was performed on cells treated with TNF.

[3] = target: B1; test: immunoprecipitation of endogenous Sam68 from MEF cells, immunoblot for TNFR (FIG. 10)
Protocol: as §1

Binder: B1
binding result [1]: binds

binding result [2]: binds
B2: TNF receptor, endogenous, in HeLa cells (receptor, human, UniProt P19438 30-455, looked up)
chain: LVPHLGDREKRDSVCPQGKYIHPQNNSICCTKCHKGTYLYNDCPGPGQDTDCRECESGSFTASENHLRHCLSCSKCRKEMGQVEISSCTVDRDTVCGCRKNQYRHYWSENLFQCFNCSLCLNGTVHLSCQEKQNTVCTCHAGFFLRENECVSCSNCKKSLECTKLCLPQIENVKGTEDSGTTVLLPLVIFFGLCLLSLLFIGLMYRYQRWKSKLYSIVCGKSTPEKEGELEGTTTKPLAPNPSFSPTPGFTPTLGFSPVPSSTFTSSSTYTPGDCPNFAAPRREVAPPYQGADPILATALASDPIPNPLQKWEDSAHKPQSLDTDDPATLYAVVENVPPLRWKEFVRRLGLSDHEIDRLELQNGRCLREAQYSMLATWRRRTPRREATLELLGRVLRDMDLLGCLEDIEEALCGPAALPPAPSLLR

binding result [3]: binds
B3: TNF receptor, endogenous, in mouse embryonic fibroblasts (MEF) (receptor, UniProt P25118 30-454, looked up)
chain: LVPSLGDREKRDSLCPQGKYVHSKNNSICCTKCHKGTYLVSDCPSPGRDTVCRECEKGTFTASQNYLRQCLSCKTCRKEMSQVEISPCQADKDTVCGCKENQFQRYLSETHFQCVDCSPCFNGTVTIPCKETQNTVCNCHAGFFLRESECVPCSHCKKNEECMKLCLPPPLANVTNPQDSGTAVLLPLVILLGLCLLSFIFISLMCRYPRWRPEVYSIICRDPVPVKEEKAGKPLTPAPSPAFSPTSGFNPTLGFSTPGFSSPVSSTPISPIFGPSNWHFMPPVSEVVPTQGADPLLYESLCSVPAPTSVQKWEDSAHPQRPDNADLAILYAVVDGVPPARWKEFMRFMGLSEHEIERLEMQNGRCLREAQYSMLEAWRRRTPRHEDTLEVVGLVLSKMNLAGCLENILEALRNPAPSSTTRLPR
notes: also called TNF receptor complex
